Reference: paper PMC3246092 (Gene, 2011)

B1: Rrn6p subunit of recombinant core factor (natural protein, S. cerevisiae, UniProt P32786 1-894, looked up)
chain: MSEGQIPSSDVLGSQLGVGVQGASLYCPQENYTTKKQEKPQWLRPVDDTLAEDALDLHIVVKSLLCDTAIRYISDDKVLQESDADDDLITSDIDEDTDNQGDTSIVVNPVIPVVPKDVHFFKKVDVGNDSMFGVNCDTPVSFQDYIPSDLLRNLDDTLQESTNSSRPMQDAFFWDPTVANRLDSQYIQTASDLRNYRDGTEIIAYASGKTGSVLNIAVLTRQNTLHLNRHNNVTSIELHSPIKSIKIPGASESIGRRSNLVGIITENSFQIFRIESVHSRSCDVMVSSSEPLYFVEIDDLQVVDFAFNPWDLQQFAIIDIKGNWSIGRIPKNFNNNNKRKLQLIDNLHGTIFDPEELSSWKRIEWFSHFQKILVFDRSKMIEIDFMNNWQTEVVQAKAWSNIRDYKRIDDKNGILLTSREIIIVGASESNDPVRRISWKHDLDPDDTTLRITVQKVKKPDHILLVAFVYSMRHKRIYMHVFSHRKANLFQSLGCSTVLEIPGGTPTGIETILTLDHIDDESRREEDADENFELVVDFLVKLRNSSEVYYYALSNTQNSEPNKQETPIIVDHPEWASLFNNADEREKESIGALVSQIKLKERERISRVQNLIEHENSHDEDKYLQDLGYRLSIATNELLESWQKTKDESILSGSLSHSKLKNLLENSDSFASIPEFSSLLDQFFQYYQDQDVTFIGFEKLLHLFLHEDVPGLDIFYNKLLQCWVLVSPQAELLTKEIVKDIIWSLARLEKPSLFEPIQNEISRSLSGPYQDIISSWDMDDINEEDESNEFNFDSQFSAPFNGRPPFNLNSQSQIPTIKSSQSSGLARRKRILKTQSQKATPLSQSTQNLSVLPDSMTPAFTLMQPPSSQISFVNDSQPRNSQKAKKKKKRIRGFG
B2: Rrn11p subunit of recombinant core factor, N-terminal 6-his (natural protein, S. cerevisiae, UniProt Q04712 1-507, looked up)
chain: MFEVPITLTNRKFAQRRKLKYQYINYISRRFDRISKKSTTTDSLPTPENSAAENNDEEEGQNSEAGTYRRSVLQQKKRRRERHWRSVVGEIYSTTESETDSQEEETEEGGEHDTGIDKEDSDEERKFWKKYEKPEKSFEIWRTVSSQNKQPINKQKMTYHNFKKIEKIPLRKMEIPLLHCTKENKLYFQSISRGLEPLKTSTSEVRNYRTRHIVTLTDLLHLNVSRHNWSLAYKIFATLIRIPGVQIKSLWGIGVEILDNLSNSSSGLDFLQWMCQIYSSKSRFVQNINYRSIVPPFQTGSRTHTAKFAITYLWSSLINCQKSMEPSSNIIDKPFDTENDLLQELIDKISEWVLTPPFMEDAEVWFIYASCHLLKADTLSRQFVNDNKNNDLIGLDRDIKINQVIKHIHYVRTFLKICLDKGGFAVPSRLIENQLKSFESRLYGEAQDIQERDVANVYDSIDNSSVENSFGDVYETNAEFLDTQLMDLSPEDNGLDEMHYSDEDSSE

Key:
[1] = target: T1, Rrn7p subunit of recombinant core factor, N-terminal 6-his (S. cerevisiae, UniProt P40992 1-514); assay: quantification of Sypro Ruby stained SDS-PAGE bands of the purified complex
T1 sequence (looked up): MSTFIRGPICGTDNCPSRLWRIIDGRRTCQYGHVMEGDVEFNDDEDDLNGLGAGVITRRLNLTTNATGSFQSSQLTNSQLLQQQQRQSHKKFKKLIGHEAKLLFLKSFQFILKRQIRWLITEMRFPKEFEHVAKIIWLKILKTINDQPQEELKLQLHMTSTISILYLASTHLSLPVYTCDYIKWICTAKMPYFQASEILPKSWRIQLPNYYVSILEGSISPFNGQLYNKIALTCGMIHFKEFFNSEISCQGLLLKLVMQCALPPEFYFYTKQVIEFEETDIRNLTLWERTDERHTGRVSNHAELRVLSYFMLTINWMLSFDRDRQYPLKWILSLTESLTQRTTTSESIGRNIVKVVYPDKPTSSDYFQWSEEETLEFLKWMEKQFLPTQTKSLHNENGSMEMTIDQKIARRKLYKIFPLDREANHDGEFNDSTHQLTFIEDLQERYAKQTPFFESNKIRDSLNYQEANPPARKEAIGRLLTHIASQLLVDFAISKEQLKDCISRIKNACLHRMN

[2] = target: B2; assay: as above

With B1 the “stoichiometry N” value [1] was 1 and the “stoichiometry N” value [2] was 1.

In the case of B2, the “stoichiometry N” value [1] is reported as 1.
